# Test results taken from patent publication US20030077318A1.
# T1: soluble H-2K^b (K^bsol), heterodimer of truncated K^b heavy chain and murine β-2 microglobulin, purified empty from Drosophila cells (murine), P01901
# T1 chain 1: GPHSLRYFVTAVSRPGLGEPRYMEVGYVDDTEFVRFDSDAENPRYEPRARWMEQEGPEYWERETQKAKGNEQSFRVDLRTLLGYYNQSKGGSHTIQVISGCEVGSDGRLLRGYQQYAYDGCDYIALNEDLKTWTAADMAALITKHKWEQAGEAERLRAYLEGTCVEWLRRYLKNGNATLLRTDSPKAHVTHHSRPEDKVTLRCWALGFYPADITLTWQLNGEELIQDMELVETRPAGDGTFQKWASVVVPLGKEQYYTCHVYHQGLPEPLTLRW
# T1 chain 2: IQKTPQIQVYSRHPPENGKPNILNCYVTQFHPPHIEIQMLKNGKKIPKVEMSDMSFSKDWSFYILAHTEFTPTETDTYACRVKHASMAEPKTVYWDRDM
# Tests used:
# [1] = biological target: T1, soluble H-2K^b (K^bsol), heterodimer of …; experiment: competitive RIA against [^125I]VSV-8 on K^bsol, P30 gel filtration, 23° C.
# [2] = biological target: T1, soluble H-2K^b (K^bsol), heterodimer of …; experiment: competitive RIA against [^125I]VSV-8 on K^bsol
binder,measurement,setting,value
EQLESIINFEKLTEWTSSNVMEER (modifications not checked) [OVA-24],Kd,[1],71 µM
same,fold lower affinity than OVA-8,[2],> 10000 fold
